Test results as given in the supplement of paper PMC7877785.
± gives the uncertainty stated by the source.

Experiment: self-splicing fitness, log relative to wild type (ln ratio); higher = more splicing; Tetrahymena group I intron in knt gene, E. coli kanamycin selection, DiMSum; sequences stand for … in CUCUCU…GGAGGGAAAAGUUAUCAGGCAUGCACCUGGUAGCUAGUCUUUAAACCAAUAGAUUGCAUCGGUUUAAAAGGCAAGACCGUCAAAUUGCGGGAAAGGGGUCAACAGCCGUUCAGUACCAAGUCUCAGGGGAAACUUUGAGAUGGCCUUGCAAAGGGUAUGGUAAUAAGCUGACGGACAUGGUCCUAACCACGCAGCCAAGUCCUAAGUCAACAGAUCUUCUGUUGAUAUGGAUGCAGUUCACAGACUAAAUGUCGGUCGGGGAAGAUGUAUUCUUCUCAUAAGAUAUAGUCGGACCUCUCCUUAAUGGGAGCUAGCGGAUGAAGUGAUGCAACACUGGAGCCGCUGGGAACUAAUUUGUAUGCGAAAGUAUAUUGAUUAGUUUUGGAGUACUCGUGGUCG
Outline: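 DiMSum derived fitness as the error-weighted combination of fold changes across replicates, kanamycin versus no kanamycin, normalised to wild type. E. coli BL21(DE3) held the library, which randomised all eight P1ex-region intron nucleotides within the knt kanamycin-resistance gene on pET-22b(+). Six replicate transformations grew overnight at 37°C or 30°C on LB agar with or without 25 μg/mL kanamycin, also containing 100 μg/mL carbenicillin, 50 μM IPTG and 0.2% rhamnose, and pooled colonies were amplicon-sequenced on an Illumina HiSeq 2500.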

AGACAGCAAUAUUACGUCCU
self-splicing fitness (ln) (30 °C): -0.567 ± 0.052 | self-splicing fitness (ln) (37 °C): -0.257 ± 0.066

AGACAGCAAUAUUACGUCGU
self-splicing fitness (ln) (30 °C): -2.21 ± 0.091 | self-splicing fitness (ln) (37 °C): -1.85 ± 0.12

AGACAGCAAUAUUACGUGAC
self-splicing fitness (ln) (30 °C): -2.89 ± 0.15 | self-splicing fitness (ln) (37 °C): -1.42 ± 0.13

AGAGAGCAAUAUUACGAAUC
self-splicing fitness (ln) (30 °C): -3.68 ± 0.47 | self-splicing fitness (ln) (37 °C): -2.06 ± 0.37

AGAGAGCAAUAUUACGACCU
self-splicing fitness (ln) (30 °C): -1.59 ± 0.18 | self-splicing fitness (ln) (37 °C): -0.651 ± 0.26

AGAGAGCAAUAUUACGACUC
self-splicing fitness (ln) (30 °C): -1.4 ± 0.12 | self-splicing fitness (ln) (37 °C): -0.408 ± 0.15

AGAGAGCAAUAUUACGACUG
self-splicing fitness (ln) (30 °C): -2.3 ± 0.2

AGAGAGCAAUAUUACGAUCC
self-splicing fitness (ln) (30 °C): -2.71 ± 0.24 | self-splicing fitness (ln) (37 °C): -1.5 ± 0.32

AGAGAGCAAUAUUACGAUGC
self-splicing fitness (ln) (30 °C): -3.3 ± 0.48

AGAGAGCAAUAUUACGAUUU
self-splicing fitness (ln) (30 °C): -1.52 ± 0.11 | self-splicing fitness (ln) (37 °C): -0.748 ± 0.11

AGAGAGCAAUAUUACGCAGA
self-splicing fitness (ln) (30 °C): -1.67 ± 0.22

AGAGAGCAAUAUUACGCGAC
self-splicing fitness (ln) (30 °C): -2.11 ± 0.34 | self-splicing fitness (ln) (37 °C): -1.87 ± 0.39

AGAGAGCAAUAUUACGCGGU
self-splicing fitness (ln) (30 °C): -3.79 ± 0.43 | self-splicing fitness (ln) (37 °C): -2.17 ± 0.46

AGAGAGCAAUAUUACGCUUA
self-splicing fitness (ln) (30 °C): -2.39 ± 0.25 | self-splicing fitness (ln) (37 °C): -1.32 ± 0.23

AGAGAGCAAUAUUACGGAUA
self-splicing fitness (ln) (30 °C): -2.48 ± 0.21 | self-splicing fitness (ln) (37 °C): -1.24 ± 0.21

AGAGAGCAAUAUUACGGAUG
self-splicing fitness (ln) (37 °C): -1.4 ± 0.36

AGAGAGCAAUAUUACGGCAU
self-splicing fitness (ln) (30 °C): -2.39 ± 0.18 | self-splicing fitness (ln) (37 °C): -1.36 ± 0.18

AGAGAGCAAUAUUACGGCGC
self-splicing fitness (ln) (37 °C): -2.13 ± 0.35

AGAGAGCAAUAUUACGGGGG
self-splicing fitness (ln) (30 °C): -2.78 ± 0.34 | self-splicing fitness (ln) (37 °C): -1.7 ± 0.36

AGAGAGCAAUAUUACGGUGG
self-splicing fitness (ln) (30 °C): -2.76 ± 0.23 | self-splicing fitness (ln) (37 °C): -3.44 ± 0.37

AGAGAGCAAUAUUACGUAUA
self-splicing fitness (ln) (37 °C): -1.02 ± 0.32

AGAGAGCAAUAUUACGUCGG
self-splicing fitness (ln) (30 °C): -2.92 ± 0.25 | self-splicing fitness (ln) (37 °C): -2.2 ± 0.26

AGAGAGCAAUAUUACGUCUG
self-splicing fitness (ln) (30 °C): -4.03 ± 0.33 | self-splicing fitness (ln) (37 °C): -2.38 ± 0.31

AGAGAGCAAUAUUACGUGAG
self-splicing fitness (ln) (30 °C): -3.12 ± 0.17 | self-splicing fitness (ln) (37 °C): -2.9 ± 0.26

AGAGAGCAAUAUUACGUGGU
self-splicing fitness (ln) (30 °C): -3.49 ± 0.29 | self-splicing fitness (ln) (37 °C): -3.6 ± 0.37

AGAGAGCAAUAUUACGUUCA
self-splicing fitness (ln) (30 °C): -2.39 ± 0.22 | self-splicing fitness (ln) (37 °C): -1.81 ± 0.22

AGAUAGCAAUAUUACGAAAU
self-splicing fitness (ln) (30 °C): -2.87 ± 0.13 | self-splicing fitness (ln) (37 °C): -0.838 ± 0.12

AGAUAGCAAUAUUACGACCA
self-splicing fitness (ln) (30 °C): -0.39 ± 0.16 | self-splicing fitness (ln) (37 °C): 1.11 ± 0.2

AGAUAGCAAUAUUACGACUG
self-splicing fitness (ln) (30 °C): -1.38 ± 0.2 | self-splicing fitness (ln) (37 °C): 0.221 ± 0.29

AGAUAGCAAUAUUACGAGUA
self-splicing fitness (ln) (30 °C): -1.76 ± 0.3 | self-splicing fitness (ln) (37 °C): -1.33 ± 0.2

AGAUAGCAAUAUUACGAGUC
self-splicing fitness (ln) (30 °C): -2.64 ± 0.18 | self-splicing fitness (ln) (37 °C): -2.14 ± 0.21

AGAUAGCAAUAUUACGAUAU
self-splicing fitness (ln) (30 °C): -1.02 ± 0.11 | self-splicing fitness (ln) (37 °C): -0.119 ± 0.14

AGAUAGCAAUAUUACGAUGC
self-splicing fitness (ln) (30 °C): -2.02 ± 0.15 | self-splicing fitness (ln) (37 °C): -0.736 ± 0.16

AGAUAGCAAUAUUACGCAAC
self-splicing fitness (ln) (30 °C): -2.05 ± 0.34 | self-splicing fitness (ln) (37 °C): -1.39 ± 0.24

AGAUAGCAAUAUUACGCAGU
self-splicing fitness (ln) (30 °C): -2.55 ± 0.17 | self-splicing fitness (ln) (37 °C): -1.49 ± 0.17

AGAUAGCAAUAUUACGCCGC
self-splicing fitness (ln) (30 °C): -3.03 ± 0.3 | self-splicing fitness (ln) (37 °C): -2.04 ± 0.32

AGAUAGCAAUAUUACGCGAG
self-splicing fitness (ln) (30 °C): -1.22 ± 0.1 | self-splicing fitness (ln) (37 °C): -1.03 ± 0.1

AGAUAGCAAUAUUACGGAAA
self-splicing fitness (ln) (30 °C): -3.51 ± 0.37 | self-splicing fitness (ln) (37 °C): -2.34 ± 0.25

AGAUAGCAAUAUUACGGAAC
self-splicing fitness (ln) (37 °C): -0.911 ± 0.3

AGAUAGCAAUAUUACGGACC
self-splicing fitness (ln) (30 °C): -0.504 ± 0.15 | self-splicing fitness (ln) (37 °C): -0.242 ± 0.12

AGAUAGCAAUAUUACGGACU
self-splicing fitness (ln) (30 °C): 0.201 ± 0.1 | self-splicing fitness (ln) (37 °C): -0.666 ± 0.093

AGAUAGCAAUAUUACGGGAU
self-splicing fitness (ln) (30 °C): -1.24 ± 0.19 | self-splicing fitness (ln) (37 °C): -1.21 ± 0.16

AGAUAGCAAUAUUACGUAGC
self-splicing fitness (ln) (30 °C): -2.88 ± 0.22 | self-splicing fitness (ln) (37 °C): -2.16 ± 0.24

AGAUAGCAAUAUUACGUUUA
self-splicing fitness (ln) (30 °C): -2.12 ± 0.13 | self-splicing fitness (ln) (37 °C): -1.43 ± 0.13

AGCAAGCAAUAUUACGAACC
self-splicing fitness (ln) (30 °C): -0.794 ± 0.12 | self-splicing fitness (ln) (37 °C): 0.286 ± 0.2

AGCAAGCAAUAUUACGAAGC
self-splicing fitness (ln) (30 °C): -3.28 ± 0.31

AGCAAGCAAUAUUACGAAUG
self-splicing fitness (ln) (30 °C): -3.77 ± 0.18 | self-splicing fitness (ln) (37 °C): -1.71 ± 0.13

AGCAAGCAAUAUUACGACAC
self-splicing fitness (ln) (30 °C): -1.21 ± 0.085 | self-splicing fitness (ln) (37 °C): -0.583 ± 0.11

AGCAAGCAAUAUUACGACCU
self-splicing fitness (ln) (30 °C): 0.278 ± 0.082 | self-splicing fitness (ln) (37 °C): 0.39 ± 0.11

AGCAAGCAAUAUUACGACGG
self-splicing fitness (ln) (30 °C): -2.35 ± 0.16 | self-splicing fitness (ln) (37 °C): -0.575 ± 0.13
